For two substances, agonist potency (EC50), cAMP split-luciferase sensor dynamic assay results are on record in paper PMC9059122.

In test [1] the target is human melanocortin-5 receptor (human) (UniProt P33032).
For test [2], the target named is human melanocortin-1 receptor (human) (UniProt Q01726).
Test [3] has as its target human melanocortin-3 receptor (human) (UniProt P41968).

Sequence of human melanocortin-1 receptor (human) (Q01726 whole entry): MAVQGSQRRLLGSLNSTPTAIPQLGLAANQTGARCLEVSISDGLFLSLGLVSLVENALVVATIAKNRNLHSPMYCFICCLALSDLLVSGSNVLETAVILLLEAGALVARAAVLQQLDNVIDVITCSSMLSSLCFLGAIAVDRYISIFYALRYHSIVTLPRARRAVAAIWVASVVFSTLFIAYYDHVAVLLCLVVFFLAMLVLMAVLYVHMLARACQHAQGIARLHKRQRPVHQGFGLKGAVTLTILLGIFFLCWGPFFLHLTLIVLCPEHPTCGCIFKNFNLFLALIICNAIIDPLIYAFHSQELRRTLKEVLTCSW
Sequence of human melanocortin-5 receptor (human) (P33032 whole entry): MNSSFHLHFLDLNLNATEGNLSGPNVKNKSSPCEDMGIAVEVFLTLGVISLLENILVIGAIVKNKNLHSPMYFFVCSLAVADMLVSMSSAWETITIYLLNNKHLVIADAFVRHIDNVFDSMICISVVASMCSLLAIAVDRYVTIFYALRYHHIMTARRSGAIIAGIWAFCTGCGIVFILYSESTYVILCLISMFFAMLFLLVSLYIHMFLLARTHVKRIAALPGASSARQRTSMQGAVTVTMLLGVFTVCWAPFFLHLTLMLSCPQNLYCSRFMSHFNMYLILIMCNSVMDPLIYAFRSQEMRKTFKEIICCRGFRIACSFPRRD
Sequence of human melanocortin-3 receptor (human) (P41968 whole entry): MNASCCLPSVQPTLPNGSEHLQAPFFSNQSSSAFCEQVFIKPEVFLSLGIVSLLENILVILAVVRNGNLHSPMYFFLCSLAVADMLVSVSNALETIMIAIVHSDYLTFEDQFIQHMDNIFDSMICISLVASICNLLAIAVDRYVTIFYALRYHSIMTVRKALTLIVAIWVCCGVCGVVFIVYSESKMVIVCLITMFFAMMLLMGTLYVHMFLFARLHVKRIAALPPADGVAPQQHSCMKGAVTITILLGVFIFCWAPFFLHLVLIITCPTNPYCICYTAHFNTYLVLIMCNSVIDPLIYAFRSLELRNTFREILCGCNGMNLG

“analogue 13 (Tyr-Val-Nle-Gly-Pro-D-Nal(2′)-Arg-Trp-Asp-Arg-Phe-Gly-NH2) (peptide)”: the agonist potency (EC50), cAMP split-luciferase sensor dynamic assay in test [1] was 4.1 nM; in test [2], 1.2 nM.
With “analogue 11 (Tyr-Val-Nle-Gly-His-D-Nal(2′)-Arg-Trp-Asp-Arg-Phe-Gly-NH2) (peptide)”, the agonist potency (EC50), cAMP split-luciferase sensor dynamic assay in test [3] was found to be 6.2 nM; in test [1] it was 3.8 nM; in test [2] it was 0.16 nM.
